The target of experiment [1] is mouse melanocortin-3 receptor (mouse) (UniProt P33033).
Experiment [2] shares this target. Put plainly: radioligand binding.
In experiment [3] the target is mouse melanocortin-4 receptor (mouse) (UniProt P56450). Briefly: radioligand binding.
The target in experiment [4] is mouse melanocortin-5 receptor (mouse) (UniProt P41149).
For experiment [5], the target named is mouse melanocortin-1 receptor (mouse) (UniProt Q01727).
Sequence of mouse melanocortin-1 receptor (mouse) (Q01727 whole entry): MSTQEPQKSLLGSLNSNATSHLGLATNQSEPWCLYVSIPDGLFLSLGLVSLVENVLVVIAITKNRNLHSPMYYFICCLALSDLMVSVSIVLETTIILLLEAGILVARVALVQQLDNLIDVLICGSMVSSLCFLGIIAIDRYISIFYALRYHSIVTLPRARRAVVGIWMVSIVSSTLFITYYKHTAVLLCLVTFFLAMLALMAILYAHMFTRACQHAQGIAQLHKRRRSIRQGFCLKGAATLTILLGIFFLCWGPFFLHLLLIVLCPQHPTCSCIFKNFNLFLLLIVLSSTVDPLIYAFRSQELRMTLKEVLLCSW

Sequence of mouse melanocortin-3 receptor (mouse) (P33033 whole entry): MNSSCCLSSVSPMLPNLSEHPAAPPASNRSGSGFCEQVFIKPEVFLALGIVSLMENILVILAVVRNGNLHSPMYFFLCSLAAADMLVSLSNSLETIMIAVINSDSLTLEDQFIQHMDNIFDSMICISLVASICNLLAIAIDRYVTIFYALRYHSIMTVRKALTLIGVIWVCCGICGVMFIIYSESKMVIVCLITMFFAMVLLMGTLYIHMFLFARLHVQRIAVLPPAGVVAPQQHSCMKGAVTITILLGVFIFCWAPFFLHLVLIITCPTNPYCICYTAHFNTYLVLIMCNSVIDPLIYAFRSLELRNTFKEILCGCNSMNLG
Sequence of mouse melanocortin-4 receptor (mouse) (P56450 whole entry): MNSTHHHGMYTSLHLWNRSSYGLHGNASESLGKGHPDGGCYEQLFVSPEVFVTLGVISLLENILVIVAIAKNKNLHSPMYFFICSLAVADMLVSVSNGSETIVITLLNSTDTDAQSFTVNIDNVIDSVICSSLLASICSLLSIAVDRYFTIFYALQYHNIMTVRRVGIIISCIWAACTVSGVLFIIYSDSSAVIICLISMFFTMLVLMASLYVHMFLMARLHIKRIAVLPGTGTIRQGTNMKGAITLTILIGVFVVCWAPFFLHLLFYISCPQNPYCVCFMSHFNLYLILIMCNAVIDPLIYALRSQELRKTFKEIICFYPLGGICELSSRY
Sequence of mouse melanocortin-5 receptor (mouse) (P41149 whole entry): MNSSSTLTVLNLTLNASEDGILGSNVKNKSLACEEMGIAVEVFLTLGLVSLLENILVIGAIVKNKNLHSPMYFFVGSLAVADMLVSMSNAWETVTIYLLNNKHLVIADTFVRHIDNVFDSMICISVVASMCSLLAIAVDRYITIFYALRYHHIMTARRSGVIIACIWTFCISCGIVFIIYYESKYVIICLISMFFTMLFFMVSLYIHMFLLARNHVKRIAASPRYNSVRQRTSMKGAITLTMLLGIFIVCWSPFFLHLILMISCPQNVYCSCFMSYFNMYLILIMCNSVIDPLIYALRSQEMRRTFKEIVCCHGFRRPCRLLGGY

B1: compound 25 (peptide)
peptide: RRFF
HELM: PEPTIDE1{[ac].R.R.[O=C([C@@H](Cc1ccc(I)cc1)N[*:1])[*:2]].F.[am]}$$$$V2.0
SMILES: CC(=O)N[C@@H](CCCNC(=N)N)C(=O)N[C@@H](CCCNC(=N)N)C(=O)N[C@H](Cc1ccc(I)cc1)C(=O)N[C@@H](Cc1ccccc1)C(N)=O
What is called IC50 is the concentration that inhibits the measured activity by half. Read a high IC50 as lower potency. Regarding B1, the cAMP AlphaScreen, HEK293 cells stably expressing the receptor: agonist EC50 in experiment [1] was found to be 540 nM. Further, the results for the IC50 in experiment [2] and in experiment [3] were 6500 nM and 455 nM, respectively.

B2: compound 26 (peptide)
peptide: HRFF
HELM: PEPTIDE1{[ac].H.R.[O=C([C@@H](Cc1ccc(I)cc1)N[*:1])[*:2]].F.[am]}$$$$V2.0
SMILES: CC(=O)N[C@@H](Cc1c[nH]cn1)C(=O)N[C@@H](CCCNC(=N)N)C(=O)N[C@H](Cc1ccc(I)cc1)C(=O)N[C@@H](Cc1ccccc1)C(N)=O
B2: the cAMP AlphaScreen, HEK293 cells stably expressing the receptor: agonist EC50 in experiment [1] came out at 1100 nM; in experiment [4] it was 680 nM; in experiment [5], 92 nM.

Source of the values: PMC5672800.
